Assay [1] deals with T1, recombinant human CD33 protein (Sino Biologicals) (human, UniProt P20138 18-259).
T1 construct: Bought protein; also called recombinant CD33
The assay is described as follows: BLI (ForteBio), antibody on anti-human Fc sensor, CD33 10 nM. The procedure: Affinity parameters of the antibody variants for human CD33 were measured by BioLayer Interferometry in a ForteBio assay according to standard techniques (Estep et al. (2013) MAbs 5(2): 270-8) and were compared to those of the parental antibody (antibody 6C7H8) and the parental humanized antibody (antibody 6C71H5). Briefly, the antibodies were captured on anti-human Fc Biosensors (Pall ForteBio). Recombinant human CD33 (10 nM, Sino Biologicals) was then bound to the captured anti-CD33 surface (200 s association time, 1200 s dissociation time). Local fitting was used to extract association and dissociation rate constants (kₐ and kd, respectively) for each antibody. Apparent affinity constants (KD) were calculated from the ratio kd/kₐ.
A general note: BLI is a label-free optical method that tracks binding on a fibre tip over time.

In assay [2] the target is T2, human CD33 on primary human dendritic cells (human, UniProt P20138 18-364). As to the kind of experiment: cell-based or functional assay.
Assay [3] concerns the target T1, recombinant human CD33 protein (Sino …). The assay is described as follows: ELISA, plate coated with recombinant CD33. (In general: In an ELISA, binding on a coated surface is turned into a signal by an enzyme label.)
For assay [4], the target named is T2, human CD33 on primary human dendritic …. As to the kind of experiment: cell-based or functional assay. This is another data set of the same source.
Assay [5] deals with T3, recombinant cynomolgus CD33 protein (NovoProtein) (cynomolgus).
T3 construct: Bought protein; also called cyno CD33
As to the kind of experiment: ELISA, plate coated with recombinant CD33.

The record followed here is patent publication US20250270319A1 (Alector, published 2025).

Substitutions are numbered along the chain they refer to. Like-named read-outs stand apart in the source and are kept apart here.

In general, Kd refers to the constant that tells how readily two partners part at equilibrium. The term koff denotes a measure of how fast the partners let go of each other. A word on the kon: it is the rate constant with which the complex forms. What is called EC50 is the concentration at which the effect is half-maximal.

T1 sequence (P20138 18-259 limits assumed): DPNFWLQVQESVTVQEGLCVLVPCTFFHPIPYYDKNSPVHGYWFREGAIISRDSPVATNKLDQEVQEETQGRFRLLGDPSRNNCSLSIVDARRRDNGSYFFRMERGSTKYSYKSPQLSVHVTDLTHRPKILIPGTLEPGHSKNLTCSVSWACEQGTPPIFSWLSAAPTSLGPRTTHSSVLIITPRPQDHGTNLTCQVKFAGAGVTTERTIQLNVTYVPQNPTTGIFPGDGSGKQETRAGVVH
T2 sequence (P20138 18-364): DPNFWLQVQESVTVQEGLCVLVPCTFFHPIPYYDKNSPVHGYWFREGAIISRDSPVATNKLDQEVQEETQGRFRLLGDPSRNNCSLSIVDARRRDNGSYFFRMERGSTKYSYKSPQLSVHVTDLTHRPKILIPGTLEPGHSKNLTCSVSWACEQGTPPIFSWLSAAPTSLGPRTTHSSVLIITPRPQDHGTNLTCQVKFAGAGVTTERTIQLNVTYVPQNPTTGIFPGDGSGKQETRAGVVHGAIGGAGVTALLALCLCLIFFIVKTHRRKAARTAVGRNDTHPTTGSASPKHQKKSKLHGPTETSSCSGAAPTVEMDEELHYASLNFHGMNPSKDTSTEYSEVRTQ
T3 sequence (chain, as listed by the source limits assumed): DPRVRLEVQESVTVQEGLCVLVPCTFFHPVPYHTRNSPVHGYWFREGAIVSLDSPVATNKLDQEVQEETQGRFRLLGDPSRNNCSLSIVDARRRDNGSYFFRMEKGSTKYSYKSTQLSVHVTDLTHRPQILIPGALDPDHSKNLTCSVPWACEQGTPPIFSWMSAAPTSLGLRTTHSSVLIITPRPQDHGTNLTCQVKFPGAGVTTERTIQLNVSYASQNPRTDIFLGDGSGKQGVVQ

B1: anti-CD33 antibody 6C7H12 (antibody, V domains shown)
VH: EVQLVESGGGLVQPGGSLRLSCAGSGFTFSNYGMNWVRQAPGKGLEWVAEIRLKSNNYVTNYAASVKGRFTISRDDSKNSVYLQMNSLKTEDTGVYYCTRAGYYVPFAYWGQGTLVTVSS
VL: QLVLTQSPSASASLGASVKLTCTLSSQHSTYTIEWYQQQPEKGPRYLMELKKEGSHSTGDGIPDRFSGSSSGAERYLTISSLQSEDEADYYCGVGDTIKEQFVYVFGGGTKLTVL
notes: VH/VL only
As to B1, in assay [1], the Kd worked out at 0.926 nM, the koff stood at 0.000694 s⁻¹ and the association rate constant (kon) was 749000 M⁻¹ s⁻¹. In assay [2], the “Fold increase in potency compared to 6C7H5” value (“Fold increase in potency” below) was found to be 0.3 fold; the “Maximal reduction in CD33 (% remaining)” value was found to be 27.5 % remaining; the “Receptor downregulation, (EC50) (pM)” value is 160 pM.

B2: anti-CD33 antibody 6C7H26 (antibody, V domains shown)
VH: B1 VH with G33I
VL: B1 VL
notes: VH/VL only
B2: in assay [1], the Kd turned out to be 0.718 nM, the koff came out at 0.000944 s⁻¹ and the kon is 1.32e+06 M⁻¹ s⁻¹. Further, in assay [2], the “Fold increase in potency” value is 0.2 fold; the “Maximal reduction in CD33 (% remaining)” value was found to be 28.3 % remaining; the “Receptor downregulation, (EC50) (pM)” value amounted to 175 pM.

B3: anti-CD33 antibody 6C7H35 (antibody, V domains shown)
VH: B1 VH with G24A, N31E, G33A, N35L, A49G, A108T
VL: B1 VL with L2P, D96V
notes: VH/VL only
As for B3, the concentration giving a half-maximal response (EC50) in assay [3] was 0.21 nM. For the same molecule, in assay [4], the “Fold increase in potency” value came to 0.8 fold and the “Receptor downregulation, (EC50) (pM)” value was 51 pM.

B4: anti-CD33 antibody 6C7H33 (antibody, V domains shown)
VH: B1 VH with G24A, F27S, N31E, G33D, N35L, A49G
VL: B1 VL with V3M, E41G, D96H
notes: VH/VL only
Regarding B4, the EC50 in assay [3] turned out to be 0.17 nM. Further, in assay [4], the “Fold increase in potency” value was found to be 0.8 fold and the “Receptor downregulation, (EC50) (pM)” value stood at 50 pM.

B5: anti-CD33 antibody 6C7H34 (antibody, V domains shown)
VH: B1 VH with G24A, F27S, N31E, G33D, N35L, A49G
VL: B1 VL with L2P, V3M, E41G, D96L
notes: VH/VL only
Take B5: the concentration giving a half-maximal response (EC50) in assay [3] came out at 0.17 nM. In addition, in assay [4], the “Fold increase in potency” value turned out to be 0.7 fold and the “Receptor downregulation, (EC50) (pM)” value was found to be 60.3 pM.

B6: anti-CD33 antibody 6C7H15 (antibody, V domains shown)
VH: B1 VH with G33S
VL: B1 VL
notes: VH/VL only
B6: in assay [1], the Kd was determined as 1.03 nM, the dissociation rate constant (koff) came to 0.000825 s⁻¹ and the on-rate constant (kon) is 801000 M⁻¹ s⁻¹. Also, in assay [2], the “Fold increase in potency” value stood at 0.2 fold; the “Maximal reduction in CD33 (% remaining)” value is 27.7 % remaining; the “Receptor downregulation, (EC50) (pM)” value is 252 pM.

B7: anti-CD33 antibody 6C7H25 (antibody, V domains shown)
VH: B1 VH with G33E
VL: B1 VL
notes: VH/VL only
In the case of B7, in assay [1], the dissociation constant Kd was 0.246 nM, the dissociation rate constant (koff) came out at 0.00013 s⁻¹ and the on-rate (kon) was 529000 M⁻¹ s⁻¹. In assay [2], the “Fold increase in potency” value was 1.6 fold; the “Maximal reduction in CD33 (% remaining)” value is 30.3 % remaining; the “Receptor downregulation, (EC50) (pM)” value is 27.6 pM.

B8: anti-CD33 antibody 6C7H31 (antibody, V domains shown)
VH: B1 VH with G24A, F27S, N31E, G33D, N35L, A49G
VL: B1 VL with L2P, D96V
notes: VH/VL only
Consider B8, for which the 50% effective concentration (EC50) in assay [3] came to 0.21 nM. For the same molecule, in assay [4], the “Fold increase in potency” value stood at 0.6 fold and the “Receptor downregulation, (EC50) (pM)” value was found to be 67.7 pM.

B9: anti-CD33 antibody 6C7H24 (antibody, V domains shown)
VH: B1 VH with G33N
VL: B1 VL
notes: VH/VL only
B9: in assay [1], the equilibrium dissociation constant (Kd) was determined as 0.552 nM, the koff was found to be 0.000757 s⁻¹ and the kon turned out to be 1.37e+06 M⁻¹ s⁻¹. Besides, in assay [2], the “Fold increase in potency” value was determined as 0.1 fold; the “Maximal reduction in CD33 (% remaining)” value came to 22.5 % remaining; the “Receptor downregulation, (EC50) (pM)” value is 319 pM.

B10: anti-CD33 antibody 6C7H20 (antibody, V domains shown)
VH: B1 VH with G33P
VL: B1 VL
notes: VH/VL only
Consider B10, for which, in assay [1], the Kd is 0.619 nM, the off-rate (koff) came to 0.000457 s⁻¹ and the kon was 739000 M⁻¹ s⁻¹. For the same molecule, in assay [2], the “Fold increase in potency” value amounted to 1 fold; the “Maximal reduction in CD33 (% remaining)” value came to 29 % remaining; the “Receptor downregulation, (EC50) (pM)” value came out at 40.8 pM.

B11: anti-CD33 antibody 6C7H23 (antibody, V domains shown)
VH: B1 VH with G33V
VL: B1 VL
notes: VH/VL only
Regarding B11, in assay [1], the equilibrium dissociation constant (Kd) is 0.558 nM, the koff came out at 0.000691 s⁻¹ and the on-rate constant (kon) worked out at 1.24e+06 M⁻¹ s⁻¹. For the same molecule, in assay [2], the “Fold increase in potency” value was determined as 0.4 fold; the “Maximal reduction in CD33 (% remaining)” value came to 26.2 % remaining; the “Receptor downregulation, (EC50) (pM)” value amounted to 120 pM.

B12: anti-CD33 antibody 6C7H17 (antibody, V domains shown)
VH: B1 VH with G33Y
VL: B1 VL
notes: VH/VL only
For the molecule B12, in assay [1], the Kd came to 0.853 nM, the koff is 0.000523 s⁻¹ and the on-rate constant (kon) is 613000 M⁻¹ s⁻¹. In addition, in assay [2], the “Fold increase in potency” value was 0.8 fold; the “Maximal reduction in CD33 (% remaining)” value stood at 32.1 % remaining; the “Receptor downregulation, (EC50) (pM)” value worked out at 51.9 pM.

B13: anti-CD33 antibody 6C7H21 (antibody, V domains shown)
VH: B1 VH with G33Q
VL: B1 VL
notes: VH/VL only
For the molecule B13, in assay [1], the Kd was 0.528 nM, the koff was 0.000263 s⁻¹ and the kon is 498000 M⁻¹ s⁻¹. Also, in assay [3], the EC50 was found to be 0.16 nM. Also, in assay [2], the “Fold increase in potency” value worked out at 1.2 fold; the “Maximal reduction in CD33 (% remaining)” value was found to be 28.3 % remaining; the “Receptor downregulation, (EC50) (pM)” value stood at 34.7 pM.

B14: anti-CD33 antibody 6C7H32 (antibody, V domains shown)
VH: B1 VH with G24A, F27S, N31E, G33D, N35L, A49G
VL: B1 VL with V3M, E41G, D96H, V105E
notes: VH/VL only
With B14, the EC50 in assay [3] was determined as 0.2 nM. In assay [4], the “Fold increase in potency” value was found to be 0.9 fold and the “Receptor downregulation, (EC50) (pM)” value came to 47.2 pM.

B15: anti-CD33 antibody 6C7H18 (antibody, V domains shown)
VH: B1 VH with G33H
VL: B1 VL
notes: VH/VL only
B15: in assay [1], the Kd is 0.609 nM, the off-rate constant (koff) is 0.00064 s⁻¹ and the kon is 1.05e+06 M⁻¹ s⁻¹. In assay [2], the “Fold increase in potency” value was 0.3 fold; the “Maximal reduction in CD33 (% remaining)” value was 29.2 % remaining; the “Receptor downregulation, (EC50) (pM)” value was 148 pM.

B16: anti-CD33 antibody 6C7H28 (antibody, V domains shown)
VH: B1 VH with N31D, G33S
VL: B1 VL
notes: VH/VL only
For the molecule B16, in assay [1], the Kd turned out to be 0.76 nM, the koff worked out at 0.000859 s⁻¹ and the kon amounted to 1.13e+06 M⁻¹ s⁻¹. In assay [2], the “Fold increase in potency” value amounted to 0.3 fold; the “Maximal reduction in CD33 (% remaining)” value stood at 27.6 % remaining; the “Receptor downregulation, (EC50) (pM)” value is 147 pM.

B17: anti-CD33 antibody 6C7H16 (antibody, V domains shown)
VH: B1 VH with G33L
VL: B1 VL
notes: VH/VL only
Consider B17, for which, in assay [1], the Kd was 0.782 nM, the koff turned out to be 0.00102 s⁻¹ and the kon came out at 1.3e+06 M⁻¹ s⁻¹. For the same molecule, in assay [2], the “Fold increase in potency” value worked out at 0.1 fold; the “Maximal reduction in CD33 (% remaining)” value came out at 28 % remaining; the “Receptor downregulation, (EC50) (pM)” value was determined as 305 pM.

B18: anti-CD33 antibody 6C7H29 (antibody, V domains shown)
VH: B1 VH with N31A, G33S
VL: B1 VL
notes: VH/VL only
For the molecule B18, in assay [1], the Kd came out at 0.991 nM, the koff came out at 0.000868 s⁻¹ and the kon stood at 875000 M⁻¹ s⁻¹. In assay [2], the “Fold increase in potency” value was 0.3 fold; the “Maximal reduction in CD33 (% remaining)” value is 27.3 % remaining; the “Receptor downregulation, (EC50) (pM)” value turned out to be 134 pM.

B19: anti-CD33 antibody 6C7H14 (antibody, V domains shown)
VH: B1 VH with G33A
VL: B1 VL
notes: VH/VL only
Turning to B19, in assay [1], the dissociation constant Kd is 0.805 nM, the koff turned out to be 0.000798 s⁻¹ and the kon is 991000 M⁻¹ s⁻¹. Besides, in assay [2], the “Fold increase in potency” value is 0.3 fold; the “Maximal reduction in CD33 (% remaining)” value was determined as 28.4 % remaining; the “Receptor downregulation, (EC50) (pM)” value amounted to 164 pM.

B20: anti-CD33 6C7 chimeric antibody (antibody, V domains shown)
VH: EVKLEESGGGLVQPGGSMKLSCVGSGFTFSNYCMNWVRQSPEKGLEWVAEIRLKSNNYVTNYVESVKGRFTISRDDSKSRVYLQMNNLRGEDTGFYYCTRDGYYVPFAYWGQGTLVTVSA
VL: QLVLTQSSSASFSLGASAKLTCTLSSQHSTYTIEWYQQQPLKPPKYVMELKKDGSHSTGDGIPDRFSGSSSGADRYLSISNIQPEDEAIYICGVGDTIKEQFVYVFGGGTKVTVL
notes: detected with anti-human IgG; also called 6C7 Chimeric Ab
B20: in assay [5], the EC50 was 2.96 nM, the “Relative maximal binding (cyno/human)” value came out at 0.47 and the “Relative potency (human/cyno)” value stood at 0.06.
